This passage reports Kd results from article PMC7096399, “The Na,K-ATPase acts upstream of phosphoinositide PI(4,5)P2 facilitating unconventional secretion of Fibroblast Growth Factor 2” (Communications Biology, 2020).

This experiment has as its target T1, ∆N25-FGF2, non-tagged form of FGF2 lacking 25 residues at the N-terminus (UniProt P09038-2 26-155).
T1 construct: FGF2, 18 kDa isoform (UniProtKB P09038-2), lacking 25 residues at the N-terminus; Untagged; also called untagged version of FGF2; source: E. coli, purified according to standard procedures
The experiment can be described thus: AlphaScreen or HTRF; competition: His-FGF2-wt (62 nM) and GST-α1 variant (15 nM) with ∆N25-FGF2 competitor from 22.5 µM to 1.4 nM; apparent IC50 taken as the apparent KD. The settings on record: both partners purified. Background: Alpha assays give light when donor and acceptor beads are brought close together.

T1 sequence (P09038 159-288): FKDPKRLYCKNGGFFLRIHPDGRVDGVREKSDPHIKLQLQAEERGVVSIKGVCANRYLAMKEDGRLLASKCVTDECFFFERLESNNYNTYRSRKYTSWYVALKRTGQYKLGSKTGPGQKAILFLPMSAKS

B1: GST-α1-CD1-3, fusion of the three main loops of the cytoplasmic domain of the α1 subunit of the Na,K-ATPase (domain or fragment)
chain: not shown
For the molecule B1, the Kd worked out at 1100 nM.
